Common to all, as to type: cell-based, human
The subject of data set [1] is LNCaP cells. Kind of data set: MTT cell viability assay. The settings on record: DEFB1 induction 24-72 h. The method, then:
Reactions were performed three times in triplicate.
DU145, PC3 and LNCaP cells (1×10^5) were transfected with 0.5 μg of the PAX2 siRNA pool or control siRNA pool using Codebreaker transfection reagent according to the manufacturer's protocol (Promega). Next, cell suspensions were diluted and seeded onto a 96-well plate at 1-5×10^3 cells per well and allowed to grow for 2-, 4- or 6 days. After culture, cell viability was determined by measuring the conversion of 3-[4,5-dimethylthiazol-2yl]-2,5 diphenyl tetrazolium bromide, MTT (Promega), to a colored formazan product. Absorbance was read at 540 nm on a scanning multiwell spectrophotometer.
(§1) To examine the effects of hBD-1 on cell growth, metabolic 3-[4,5-dimethylthiazol-2yl]-2,5-diphenyl tetrazolium bromide (MTT) assay was performed. DU145, LNCaP, PC3 and PC3/AR+ cells co-transfected with pvgRXR plasmid and pIND/hBD-1 construct or control pvgRXR plasmid were seeded onto a 96-well plate at 1-5×10^3 cells per well. Twenty-four hours after seeding, fresh growth medium was added containing 10 μM Pon A daily to induce hBD-1 expression for 24, 48 and 72 h after which the MTT assay was performed according to the manufacturer's instructions (Promega). Reactions were performed three times in triplicate.

Data set [2] relates to PC3/AR+ cells. Kind of data set: MTT cell viability assay. As to conditions: PC3/AR+ versus PC3. The method, then: as §1
On the technique in general: Formazan colour is commonly taken as a measure of viable cells.

Data set [3] relates to DU145 cells. As to the kind of experiment: Annexin V-FITC/PI flow cytometry. The method, then: (§2) The remaining attached cells were harvested by trypsinization and combined with the detached cells and PBS. The cells were then pelleted at 4° C. (500×g) for 5 min, washed twice in PBS, and resuspended in 100 ul of 1× Annexin binding buffer (0.1 M Hepes/NaOH at pH 7.4, 1.4 M NaCl, 25 mM CaCl2) containing 5 μl of Annexin V-FITC and 5 μl of PI. The cells were incubated at room temperature (RT) for 15 min. in the dark, then diluted with 400 μl of 1× Annexin binding buffer and analyzed by FACscan (Becton Dickinson, San Jose, Calif.). All reactions were performed three times.
(§3) PC3 and DU145 cells transfected with the hBD-1 expression system were grown in 60-mm dishes and induced for 12, 24, and 48 h with 10 μM Pon A. The cells were harvested and analyzed by flow cytometry as described in Example 1.
A general note: Flow cytometry measures light scatter and fluorescence of single cells or particles in a stream.

Data set [4] deals with PC3 cells. As to the kind of experiment: Annexin V-FITC/PI flow cytometry. The method, then: as §2, §3
Data set [5] has as its system active caspases. Kind of data set: Pan-caspase detection (FAM-VAD-FMK, confocal). The method, then: Detection of caspase activity in the prostate cancer cell lines was performed using APO LOGIX™ Carboxyfluorescin Caspase detection kit (Cell Technology, Mountain View, Calif.). Active caspases were detected through the use of a FAM-VAD-FMK inhibitor that irreversibly binds to active caspases. […] Next, 10 μl of a 30× working dilution of carboxyfluorescein labeled peptide fluoromethyl ketone (FAM-VAD-FMK) was added to 300 μl of media and added to each 35 mm dish. Cells were then incubated for 1 hour at 37° C. under 5% CO2. Then, the medium was aspirated and the cells were washed twice with 2 ml of a 1× Working dilution Wash Buffer. Cells were viewed under differential interference contrast (DIC) or under laser excitation at 488 nm. The fluorescent signal was analyzed using a confocal microscope (Zeiss LSM 5 Pascal) and a 63×DIC oil lens with a Vario 2 RGB Laser Scanning Module.

In data set [6] the test system is DU145 cells. Kind of data set: AO/EtBr membrane integrity staining. The procedure:
(§4) Acridine orange (AO)/ethidium bromide (EtBr) dual staining was performed to identify changes in cell membrane integrity, as well as apoptotic cells by staining the condensed chromatin. AO stains viable cells as well as early apoptotic cells, whereas EtBr stains late stage apoptotic cells that have lost […]. Briefly, cells were seeded into 2 chamber culture slides (BD Falcon, USA). […] In order to determine the effect of PAX2 inhibition on membrane integrity, separate culture slides containing DU145, PC3 and LNCaP were treated with PAX2 siRNA and incubated for 4 days. Following this, cells were washed once with PBS and stained with 2 ml of a mixture (1:1) of AO (Sigma, USA) and EtBr (Promega, USA) (5 ug/ml) solution for 5 min. Following staining, the cells were again washed with PBS. Fluorescence was viewed by a Zeiss LSM 5 Pascal Vario 2 Laser Scanning Confocal Microscope (Carl Zeiss Jena, Germany). The excitation color wheel contain BS505-530 (green) and LP560 (red) filter blocks which allowed for the separation of emitted green light from AO into the green channel and red light from EtBr into the red channel. […] The excitation was provided by a Kr/Ar mixed gas laser at wavelengths of […]. Slides were analyzed under 40× magnification and digital images were stored as uncompressed TIFF files and exported into Photoshop CS software (Adobe Systems, San Jose, Calif.) for image processing and hard copy presentation.
(§5) Acridine orange (AO)/ethidium bromide (EtBr) dual staining was performed to identify changes in cell membrane integrity, as well as apoptotic cells by staining the condensed chromatin. AO stains viable cells and early apoptotic cells, whereas EtBr stains late stage apoptotic cells that have compromised membranes. Briefly, PC3, DU145 and LNCaP cells were seeded into 2-chamber culture slides (BD Falcon). Cells transfected with empty plasmid or hBD-1 plasmid were induced for 24 or 48 h with media containing 10 μM Pon A, while control cells received fresh growth media at each time point. After induction, cells were washed once with PBS and stained with 2 ml of a mixture (1:1) of AO (Sigma, St. Louis, Mo.) and EtBr (Promega) (5 μg/ml) solution for 5 min and were again washed with PBS.
(§6) Fluorescence was viewed by a Zeiss LSM 5 Pascal Vario 2 Laser Scanning Confocal Microscope (Carl Zeiss). The excitation color wheel contains BS505-530 (green) and LP560 (red) filter blocks which allowed for the separation of emitted green light from AO into the green channel and red light from EtBr into the red channel. The laser power output and gain control settings within each individual experiment were identical between control and hBD-1 induced cells. The excitation was provided by a Kr/Ar mixed gas laser at wavelengths of […]. Slides were analyzed under 40× magnification and digital images were stored as uncompressed TIFF files and exported into Photoshop CS software (Adobe Systems) for image processing and hard copy presentation.

For data set [7], the system named is LNCaP cells. Kind of data set: AO/EtBr membrane integrity staining. As to conditions: 48 h hBD-1 induction. The procedure: as §4, §5, §6
The subject of data set [8] is PC3 cells. Kind of data set: AO/EtBr membrane integrity staining. The procedure: as §4, §5, §6
Data set [9] deals with DU145 cells. Kind of data set: Phase contrast microscopy of cell growth. As to conditions: DU145, 48 h DEFB1 induction. The method, then: (§7) Cell morphology was analyzed by phase contrast microscopy. […] The following day plasmid-containing cells were induced for a period of 48 h with media containing 10 μM Ponasterone A, while control cells received fresh media. The cells were then viewed under an inverted Zeiss IM 35 microscope (Carl Zeiss, Germany). Phase contrast pictures of a field of cells were obtained using the SPOT Insight Mosaic 4.2 camera (Diagnostic Instruments, USA). Cells were examined by phase contrast microscopy under 32× magnification and digital images were stored as uncompressed TIFF files and exported into Photoshop CS software (Adobe Systems, San Jose, Calif.) for image processing and hard copy presentation.
(§8) The effect of PAX2 knock-down on cell growth was analyzed by phase contrast microscopy as described in Example 1.

Data set [10] relates to LNCaP cells. Kind of data set: Phase contrast microscopy of cell growth. The settings on record: 48 h DEFB1 induction. The method, then:
as §7, §8

Data set [11] deals with PC3 cells. Kind of data set: Phase contrast microscopy of cell growth. The settings on record: PC3, 48 h DEFB1 induction. The method, then:
as §7, §8

B1: DEFB1: human β-defensin-1 (SEQ ID NO:63), expressed in cells from pIND/DEFB1 on Ponasterone A induction (protein, listed as Homo sapiens)
chain: MRTSYLLLFTLCLLLSEMASGGNFLTGLGHRSDHYNCVSSGGQCLYSACPIFTKIQGTCYRGKAKCCK
In the case of B1, the “effect on cell viability” value in [1] is “no significant effect”. Moreover, the “hBD-1 cytotoxicity with ectopic AR expression” value in data set [2] is “no difference between PC3/AR+ and PC3 cells”. Further, the “number of apoptotic cells” value in data set [3] (DU145, 12 h DEFB1 induction) is on record as 12%; in [3] (DU145, 24 h DEFB1 induction), 34%; in data set [3] (DU145, 48 h DEFB1 induction) it was 59%; in data set [4] (PC3, 12 h DEFB1 induction), 10%; in data set [4] (PC3, 24 h DEFB1 induction), 20%. The “caspase activity (green staining)” value was “green staining” in [5] (DU145, 24 h DEFB1 induction); “no green staining” in data set [5] (LNCaP, 24 h DEFB1 induction); “green staining” in data set [5] (PC3, 24 h DEFB1 induction). In addition, the “membrane integrity (AO/EtBr)” value in [6] (DU145, 24 h DEFB1 induction) is “accumulation of EtBr in the cytoplasm”; in data set [6] (DU145, 48 h DEFB1 induction) it was “condensed nuclei and appeared yellow”; in data set [7], “no observable alterations to membrane integrity”; in data set [8] (PC3, 24 h DEFB1 induction), “accumulation of EtBr in the cytoplasm”; in data set [8] (PC3, 48 h DEFB1 induction) it was “condensed nuclei and appeared yellow”. Moreover, the cell number result in data set [9] and in [11] was “significant reduction in cell number” in each case. The cell proliferation entry in [10] is reported as “no effect on cell proliferation”.

(Values after patent US20140323349A1, “COMPOSITIONS AND METHODS FOR MONITORING AND DETECTING CANCEROUS CONDITIONS” (PHIGENIX, INC., priority 2011, published 2014).)
